This is an account of results in patent US20080063623A1 (INTEVERT INTERNATIONAL B V, published 2008).

The data set deals with the molecule itself. Kind of data set: transfection of COS-7 cells, non-denaturing Western blot of supernatants. (A western blot detects proteins with antibodies after separation by electrophoresis.)

Protocol: COS-7 cells were transfected with 1.5 μg of each cDNA construct using the Invitrogen Life Technologies Lipofectamine™ reagent (as described by the manufacturer) and cultured in 3-cm dishes with DMEM (without FCS and penicillin/streptomycin). After 8 h, transfected cells were washed and cultured in DMEM with penicillin/streptomycin and 10% FCS. After 72 h incubation at 37° C./5% C0₂ the cell culture supernatants were harvested and centrifuged at 13,000 rpm for 10 min at 4° C. to remove cell debris. The supernatants were analyzed via Western blotting and used immediately or stored at −70° C.
Cell culture supernatants from transfected COS-7 cells were size fractionated using 4-12% Nu-PAGE™ (Invitrogen) and blotted onto nitrocellulose filters (Schleicher & Schuell). Western blots were blocked in 3% skimmed milk (MPBS) in PBS, and subsequently incubated with a polyclonal antibody that was raised against a FeIL-12 p40 peptide diluted 1:300 in MPBS. Blocking and antibody incubation were each performed for 1 h at room temperature. After extensive washing (3 times 5 min), blots were incubated with alkaline peroxidase (AP)-conjugated goat anti-rabbit IgG antibodies (Sanbio) diluted 1:1000 in MPBS for 1 h at room temperature. After washing (3 times 5 min), bound AP-labeled secondary antibodies were visualized via staining. […]

B1: chicken IL-12 p40 subunit (ChIL-12 p40) (ligand)
chain: QWKLRENVYVIESEWNDETPAKKVKLTCDTSDEALPVYWKKGTELKGTGKTLTTEVKEFPDAGNYTCLSAKTHEIISYSFFLITKVDSNGQMIRSILKSYKEPSKTFLKCEAKNYSGIFTCSWMTENESPSVKFTIRSLKGSQGDVTCSSPVARTDKSVTEYTAQCQKENYCPFAEEHQPTEMFLEVIDEVEYENYTSSFFIRDIIKPDPPQCQYASTNGTVTWTYPKTWSTPKSYFPLTFRVKVESTKKYKSKVYDADEQSIQIPKTGPKDKISVQARDRYYNSSWSEWSTLCR
notes: also called chicken p40; clone pND89
As to B1, the binding result was “binds”.
